The subject of one test is HAdV-41. In words: Infection assay (hexon staining), HAdV-41. The settings on record: 15 µM HD5, A549 cells. In kind it is cell-based, human adenovirus. As to the method: (§1) To determine whether sensitivity to α-defensins is a general property of HAdVs, serotypes representative of HAdV species A–F were tested for infectivity in the presence of 15 µM HD5 or HNP1 (Figure 1). Wild type HAdVs rather than vectors were used for these studies, and infectivity was assessed by staining for hexon production. […] These studies indicate that sensitivity to α-defensins is species specific. In addition, particular HAdV serotypes are not equally sensitive to all defensins, indicating defensin sequence specificity as well.
(§2) Figure 1 Sensitivity to neutralization by alpha-defensins is AdV species specific. HAdVs were incubated with 15 µM HD5 (A) or HNP1 (B) and assessed for infectivity on A549 cells. Data are the mean of the percent infectivity compared to control cells infected with each virus in the absence of defensin for at least three independent experiments ± SD. The upper limit for quantification of this assay is 200%. […]
(§3) Prior to use in this assay, each virus stock was titrated on A549 cells. […] In parallel, wells were infected with two-fold serial dilutions of each virus to establish a standard curve for quantification with an upper limit of 200%. […] Total well fluorescence above background was quantified with ImageJ software. For each virus, samples were quantified by nonlinear regression against the standard curve using Prism software (GraphPad Software, Inc., La Jolla, CA).

The next test deals with HAdV-4 (species E). Kind of test: Infection assay (hexon staining), HAdV-4. In kind it is cell-based, human adenovirus. The note with it: 15 µM HD5 or HNP1, A549 cells, hexon staining at ~48 h, vs. no defensin. How it is done:
as §1, §2, §3

Another test has as its system PB/GYAR. Kind of test: Virus-defensin binding assay, PB/GYAR. Also on record: species or system human adenovirus. The note with it: studies equivalent to Figure 2B, data not shown. How it is done:
(§4) We then combined the GYAR substitution with the PB substitution in a single construct (PB/GYAR).
To measure HD5 binding to HAdV-5 and -51, HD5 was serially diluted in PBS and mixed with 5 µg purified virus. After 1 h incubation on ice, one half of each sample was separated by ultracentrifugation [209,000×g (avg.) for 2 hrs at 4°C] on a discontinuous gradient consisting of 300 µl of 30% nycodenz and 200 µl of 80% nycodenz in 50 mM NaCl, 20 mM HEPES pH 7.4 using an SW55ti rotor with adaptors (Beckman Coulter, Inc.). The visible virus band was collected. The other half of each sample was used to make a standard curve for quantification. All samples were boiled in reducing loading buffer and separated using a 16% PAGEgel (Expedeon, Inc., San Diego, CA) or 10–20% Tris-Tricine gel (Bio-Rad, Hercules, CA). The gels were stained with Deep Purple (GE Healthcare) and imaged on a Typhoon Trio. Virus bands were quantified using ImageQuant NT software (GE Healthcare). The amount of HD5 in each sample was normalized to protein V and hexon. The amount of HD5 in the centrifuged samples was then quantified against the standard curve using Prism software. Affinity and stoichiometry were estimated from the average data of at least three independent experiments using Prism software.

The next test relates to HAdV-25p. Kind of test: Virus-defensin binding assay, HAdV-25p. Also on record: species or system human adenovirus. From the text:
Figure 2 HD5 binding to HAdV. A) HD5 binding to a representative defensin-sensitive serotype (HAdV-5) was quantified by an equilibrium-binding assay. Data are the mean of the number of HD5 molecules bound per virion at the indicated HD5 concentrations from at least three independent experiments ± SD. Binding curves were fitted using Prism software. B) Binding of HD5 to additional defensin-sensitive (HAdV-7p) and resistant (HAdV-19c, -25p, -51p) serotypes expressed as a percent of HD5 bound to HAdV-5. Data are the mean of two or three independent experiments ± SD.
We assessed HD5 binding to additional serotypes after incubation with 20 µM HD5 (Figure 2B). The sensitive serotype HAdV-7p bound 69.3±15.9% of the amount of HD5 bound to HAdV-5 in parallel samples; whereas, the corresponding values for the resistant serotypes HAdV-19c, -25p, and -51p were 32.5±7.5%, 3.3±5.8%, and 24.6±12.0%, respectively.
To measure HD5 binding to HAdV-5 and -51, HD5 was serially diluted in PBS and mixed with 5 µg purified virus. […] The other half of each sample was used to make a standard curve for quantification. […] Virus bands were quantified using ImageQuant NT software (GE Healthcare). […] The amount of HD5 in the centrifuged samples was then quantified against the standard curve using Prism software. […]

Test [1] relates to HAdV-5/HAdV-19c chimeric viruses. Kind of test: FACS-based infection assay of virus chimeras at 100-fold lower moi. In kind it is cell-based, human adenovirus. The note with it: data not shown.
Excerpt: as §4

Entries after “also recorded” stand apart in the source; their conditions may differ.

The text below walks through data of paper PMC2891831, “Insight into the Mechanisms of Adenovirus Capsid Disassembly from Studies of Defensin Neutralization” (PLoS Pathogens, 2010).

B1: HD5: human alpha-defensin; synthetic, obtained from Peptides International; three disulfide bonds (PDB 1ZMP) (peptide, UniProt Q01523 20-94, looked up)
Defensin alpha 5: ESLQERADEATTQKQSGEDNQDLAISFAGNGLSALRTSGSQARATCYCRTGRCATRESLSGVCEISGRLYRLCCR
modifications: Defensin-5
B1: in the test with HAdV-41, the “sensitivity to HD5” value is recorded as “resistant”. Further, in the test on HAdV-4 (species E), the “sensitivity to neutralization (infectivity)” value is “moderately sensitive”. Besides, the “amount of HD5 bound compared to HAdV-5” value with PB/GYAR is “did not detect a reduction in the amount of HD5 bound; also recorded: did not result in a noticeable reduction in overall HD5 binding”. The “HD5 bound, percent of HD5 bound to HAdV-5” value with HAdV-25p (20 µM HD5, mean of two or three independent experiments ± SD) was found to be 3.3±5.8%. Further, the “level of HD5 binding (in words)” value with HAdV-25p (HAdV-25p) is “only a low level of binding”. Besides, the “sensitivity phenotype of chimeras in FACS-based assay” value in test [1] is reported as “Equivalent results”.
